In patent US20250161472A1 (BIOATLA, published 2025):
One block for each binder: values may come before it.

Tests used:
[1] = target: human ROR2 (receptor tyrosine kinase-like orphan receptor 2) (human) (UniProt Q01974); experiment: affinity ELISA on human ROR2, pH 6.0
[2] = target: human ROR2 (receptor tyrosine kinase-like orphan receptor 2) (human) (UniProt Q01974); experiment: affinity ELISA on human ROR2, pH 7.4
[3] = target: human ROR2 (receptor tyrosine kinase-like orphan receptor 2) (human) (UniProt Q01974); experiment: affinity ELISA on human ROR2, signal at pH 6.0 over pH 7.4
[4] = target: T1, human ROR2 (receptor tyrosine kinase-like orphan receptor 2) (human, UniProt Q01974 34-403, limits assumed); experiment: affinity ELISA on human ROR2, pH 6.0; design: unit not given here
T1 construct: Antigen of the ELISA, SPR and pH titration assays; also called hROR2
T1 sequence (Q01974 34-403 limits assumed): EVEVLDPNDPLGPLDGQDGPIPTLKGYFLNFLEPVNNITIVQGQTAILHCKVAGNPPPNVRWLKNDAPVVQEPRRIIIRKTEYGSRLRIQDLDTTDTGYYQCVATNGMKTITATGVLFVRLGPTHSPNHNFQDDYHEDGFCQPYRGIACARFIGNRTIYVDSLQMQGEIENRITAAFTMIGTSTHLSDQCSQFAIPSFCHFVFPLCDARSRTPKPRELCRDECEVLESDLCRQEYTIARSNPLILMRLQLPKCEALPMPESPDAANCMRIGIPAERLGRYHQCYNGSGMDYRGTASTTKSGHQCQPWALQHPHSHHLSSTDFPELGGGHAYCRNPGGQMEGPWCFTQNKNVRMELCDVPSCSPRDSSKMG

[5] = target: T1, human ROR2 (receptor tyrosine …); experiment: affinity ELISA on human ROR2, pH 7.4; design: unit not given here
[6] = target: human ROR2 expressed on the surface of HEK293 cells (human, UniProt Q01974 34-943); experiment: cell-based or functional assay
Sequence of human ROR2 expressed on the surface of HEK293 cells (Q01974 34-943): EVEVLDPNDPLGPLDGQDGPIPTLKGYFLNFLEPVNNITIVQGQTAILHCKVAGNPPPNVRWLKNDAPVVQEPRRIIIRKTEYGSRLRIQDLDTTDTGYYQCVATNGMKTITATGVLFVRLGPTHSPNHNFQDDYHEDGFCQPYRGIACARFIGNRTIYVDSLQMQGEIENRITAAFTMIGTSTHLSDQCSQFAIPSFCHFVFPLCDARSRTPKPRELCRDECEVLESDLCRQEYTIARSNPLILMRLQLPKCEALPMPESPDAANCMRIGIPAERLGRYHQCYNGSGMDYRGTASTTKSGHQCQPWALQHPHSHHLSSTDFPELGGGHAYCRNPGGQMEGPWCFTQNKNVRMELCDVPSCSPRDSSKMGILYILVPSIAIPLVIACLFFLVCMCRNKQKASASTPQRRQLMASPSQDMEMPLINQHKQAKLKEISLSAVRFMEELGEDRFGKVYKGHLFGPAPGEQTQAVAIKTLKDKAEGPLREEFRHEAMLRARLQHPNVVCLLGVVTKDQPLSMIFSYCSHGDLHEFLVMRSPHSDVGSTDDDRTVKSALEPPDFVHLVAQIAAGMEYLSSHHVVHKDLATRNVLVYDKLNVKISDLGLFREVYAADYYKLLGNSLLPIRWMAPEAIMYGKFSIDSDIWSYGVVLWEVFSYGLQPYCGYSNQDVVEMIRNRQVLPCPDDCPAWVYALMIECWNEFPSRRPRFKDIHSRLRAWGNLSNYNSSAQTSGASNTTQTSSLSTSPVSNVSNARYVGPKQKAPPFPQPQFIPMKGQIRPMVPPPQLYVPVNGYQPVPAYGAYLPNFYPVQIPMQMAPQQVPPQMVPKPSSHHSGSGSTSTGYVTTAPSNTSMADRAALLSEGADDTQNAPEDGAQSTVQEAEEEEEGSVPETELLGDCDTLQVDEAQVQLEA

[7] = target: T1, human ROR2 (receptor tyrosine …); experiment: plate binding assay (ELISA per Example 1) on ROR2 at pH 6.0 and pH 7.4, 40 ng mAb, untreated and after 1 h at 60°C

Sequence of human ROR2 (receptor tyrosine kinase-like orphan receptor 2) (human) (Q01974 34-403 limits assumed): as the sequence (Q01974 34-403 limits assumed) above

Affinity ELISA, pH 6.0 [4]: 0.755 | Affinity ELISA, pH 7.4 [5]: 0.474
B3: LC-T096D (antibody, V domains shown)
VH: EVQLQQSGPELVKPGASVKISCKTSGYTFTEYTMHWMKQSHRKSLEWIGGINTNNGGTGYNQKFKGKATLTVDKSSSTAYMELRSLTSEDSAVYFCARGSLYSYGNSYFDYWGQGTLVTVSS
VL: QIVLTQSPAIMSASPGEKVTITCSATSSVSYMHWFQQKPGTSPKLWIYGTSNLASGVPARFSGSGSGTSYSLTISRMEAEDAATYYCQQRSSYPFDFGQGTKVEIK
notes: CPE single point mutant of parent VL 48.6-LC-WT

Affinity ELISA, pH 6.0 [4]: 0.911 | Affinity ELISA, pH 7.4 [5]: 0.405
B4: LC-Y031D (antibody, V domains shown)
VH: EVQLQQSGPELVKPGASVKISCKTSGYTFTEYTMHWMKQSHRKSLEWIGGINTNNGGTGYNQKFKGKATLTVDKSSSTAYMELRSLTSEDSAVYFCARGSLYSYGNSYFDYWGQGTLVTVSS
VL: QIVLTQSPAIMSASPGEKVTITCSATSSVSDMHWFQQKPGTSPKLWIYGTSNLASGVPARFSGSGSGTSYSLTISRMEAEDAATYYCQQRSSYPFTFGQGTKVEIK
notes: as for B3

Affinity ELISA, pH 6.0 [4]: 1.34 | Affinity ELISA, pH 7.4 [5]: 0.7
B5: LC-Y031C (antibody, V domains shown)
VH: EVQLQQSGPELVKPGASVKISCKTSGYTFTEYTMHWMKQSHRKSLEWIGGINTNNGGTGYNQKFKGKATLTVDKSSSTAYMELRSLTSEDSAVYFCARGSLYSYGNSYFDYWGQGTLVTVSS
VL: QIVLTQSPAIMSASPGEKVTITCSATSSVSCMHWFQQKPGTSPKLWIYGTSNLASGVPARFSGSGSGTSYSLTISRMEAEDAATYYCQQRSSYPFTFGQGTKVEIK
notes: as for B3

binding result [7]: binds
B7: BAP048.7-humA03F01-CAB (#3948) (antibody, V domains shown)
VH: EVQLVQSGAEVKKPGESLRISCKGSGYTFTEYTMHWIRQSPSRGLEWLGGINTNNGGTGYNQKFKGRVTISADKSISTAYLQWSSLKASDTAMYYCAHGSLYSYGNSYFDYWGQGTLVTVSS
VL: AIQLTQSPSSLSASVGDRVTITCSATSSVSYMHWYLQKPGQSPQLLIYGTSNLASGVPDRFSGSGSGTDFTLKISRVEAEDVGVYYCQQRSSYPFTFGQGTKVEIK
notes: The sheet says 'mAb'; also called BAP048.7-humA03F01 (#3948); BAP048.7-A03F01

binding result [7]: binds
B8: BAP048.7-humC02D09-CAB )#3947) (antibody, V domains shown)
VH: QVQLVQSGAEVKKPGASVKVSCKASGYTFTEYTMHWVRQARGQRLEWIGGINTNNGGTGYNQKFKGRVTISADKSISTAYLQWSSLKASDTAMYYCAHGSLYSYGNSYFDYWGQGTLVTVSS
VL: AIQLTQSPSSLSASVGDRVTITCSATSSVSYMHWYQQKPGQAPRLLIYGTSNLASGVPDRFSGSGSGTDFTLKISRVEAEDVGVYYCQQRSSYPFTFGQGTKVEIK
notes: The sheet says 'mAb'; also called BAP048.7-C02D09; ROR2-CAB1-ADC (as conjugate)

Second part, the binder before the results:

B1: HC-N106E (antibody, V domains shown)
VH: EVQLQQSGPELVKPGASVKISCKTSGYTFTEYTMHWMKQSHRKSLEWIGGINTNNGGTGYNQKFKGKATLTVDKSSSTAYMELRSLTSEDSAVYFCARGSLYSYGESYFDYWGQGTLVTVSS
VL: QIVLTQSPAIMSASPGEKVTITCSATSSVSYMHWFQQKPGTSPKLWIYGTSNLASGVPARFSGSGSGTSYSLTISRMEAEDAATYYCQQRSSYPFTFGQGTKVEIK
Affinity ELISA, pH 6.0 [1]: 0.224 | Affinity ELISA, pH 7.4 [2]: 0.115 | ratio, pH 6.0/7.4 [3]: 1.95

B2: LC-F097D (antibody, V domains shown)
VH: EVQLQQSGPELVKPGASVKISCKTSGYTFTEYTMHWMKQSHRKSLEWIGGINTNNGGTGYNQKFKGKATLTVDKSSSTAYMELRSLTSEDSAVYFCARGSLYSYGNSYFDYWGQGTLVTVSS
VL: QIVLTQSPAIMSASPGEKVTITCSATSSVSYMHWFQQKPGTSPKLWIYGTSNLASGVPARFSGSGSGTSYSLTISRMEAEDAATYYCQQRSSYPFTDGQGTKVEIK
Affinity ELISA, pH 6.0 [1]: 0.19 | Affinity ELISA, pH 7.4 [2]: 0.107 | ratio, pH 6.0/7.4 [3]: 1.77

B6: BAP048 conjugated to monomethyl auristatin E (BAP048 ADC) (other)
VL: AIQLTQSPSSLSASVGDRVTITCSATSSVSYMHWYLQKPGQSPQLLIYGTSNLASGVPDRFSGSGSGTDFTLKISRVEAEDVGVYYCQQRSSYPFTFGQGTKVEIK
VH: EVQLVQSGAEVKKPGESLRISCKGSGYTFTEYTMHWVRQAPGQGLEWMGGINTNNGGTGYNQKFKGRVTISADKSISTAYLQWSSLKASDTAMYYCAHGSLYSYGNSYFDYWGQGTLVTVSS
modifications: MMAE drug conjugate (site, chain and linker not stated in Example 5)
cell killing, difference of effective concentration between pH 7.4 and pH 6.0 [6]: ~10 fold
